Experimental data published in patent US20160279247A1, “CYCLIC PEPTIDE” (THE SECRETARY OF STATE FOR BUSINESS, INNOVATION & SKILLS OF …, published 2016).
Where no end group is shown, it is not given here.

Biological target: T1, D2 peptide (C-terminal amide ('am'))
T1 peptide: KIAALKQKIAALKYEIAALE
Experiment: CD spectroscopy, thermal denaturation of the equimolar mixture (100 uM in each peptide)
Method: CD spectra were recorded on an Applied Photosystem Chirascan spectropolarimetre fitted with a Peltier temperature controller. All measurements were taken in ellipticities in mdeg and after baseline correction were converted to mean residue ellipticity (MRE; deg cm² dmol res⁻¹) by normalising for the concentration of peptide bonds and cuvette pathlength. Aqueous peptide solutions (300 μL, 100 μM in each peptide unless stated otherwise) were prepared in filtered (0.22 μm) 10 mM MOPS or phosphate buffer, pH 7.4. To calculate the percent α-helix, the equation, −100([q]₂₂₂+3000)/33 000), was used.
Thermal denaturation curves (solid lines) and their first derivatives (dashed lines) for SaNet (FIG. 8a), D1-D2 (FIGS. 8b) and D1 (FIG. 8c); and CD spectra following the thermal unfolding of D1-D2 (FIGS. 8d) and D1 (FIG. 8e); 10° C. (dotted line) and 90° C. (dashed line) with intervening spectra recorded every 10° C. (solid lines).

EIAALEQEIAALEYKIAALK-NH2 [D1 peptide]
transition midpoint of thermal unfolding of the D1+D2 mixture: ~55 ° C.
